The test system of series [1] is Saccharomyces cerevisiae. The series is described as follows: protein stability index of tFT-peptide fusion (C-terminal peptide) (PSI (0-1 scale)); higher = more stable (slower turnover). The conditions noted are these: genetic background: wild type; temperature: 30 C.
Series [2] concerns Saccharomyces cerevisiae. The series is described as above. The protocol:
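MPS profiling in S. cerevisiae of the tFT-X12 degron library: putative degron peptides plus stable controls, 12 aa, fused to the C-terminus of a sfGFP-mCherry timer. Cells are FACS-sorted into 8 mCherry/sfGFP bins and deep-sequenced. PSI runs from 0 (unstable) to 1 (stable). Backgrounds are wild type, das1Δ and doa10Δ at 30 °C, and wild type, das1Δ, cdc34-1 and cdc53-1 at 37 °C; 2-3 technical replicates each.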

[3] abbreviates: genetic background: cdc34-1, temperature: 37 C.
[4] abbreviates: genetic background: cdc53-1, temperature: 37 C.
[5] abbreviates: genetic background: das1 deletion, temperature: 30 C.
The mark [6] stands for this setting: genetic background: das1 deletion, temperature: 37 C.
[7] abbreviates: genetic background: doa10 deletion, temperature: 30 C.
The mark [8] stands for this setting: genetic background: wild type, temperature: 30 C.
[9] abbreviates: genetic background: wild type, temperature: 37 C.

Protein stability index data for 15 sequences are collected here from the supplement of paper PMC10724198.

± gives the standard deviation of the averaged measurements.
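Note: PSI is a weighted mean of sequencing reads over stability bins, variants kept only with over 10 reads, mCherry proximal and sfGFP distal, peptide attached via GGGS linker.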

Take CFFSLLLLIFSV: the protein stability index stood at 0.377 ± 0.032 in series [1]; 0.4101 ± 0.0016 in series [2] (setting [3]); 0.412 ± 0.024 in series [2] (setting [4]); 0.311 ± 0.041 in series [2] (setting [5]); 0.4838 ± 0.0022 in series [2] (setting [6]); 0.3486 ± 0.0032 in series [2] (setting [7]). In addition, the figures for the protein stability index in series [2] (setting [8]) and in series [2] (setting [9]) were 0.31 ± 0.017 and 0.4476 ± 0.0032, respectively.
As for CFLLVSLGILCW, the protein stability index came to 0.176 ± 0.094 in series [1]; 0.0312 ± 0.00089 in series [2] (setting [3]); 0.0425 ± 0.02 in series [2] (setting [4]); 0.109 ± 0.036 in series [2] (setting [5]); 0.121 ± 0.003 in series [2] (setting [6]); 0.0685 ± 0.035 in series [2] (setting [7]). The figures for the protein stability index in series [2] (setting [8]) and in series [2] (setting [9]) were 0.106 ± 0.034 and 0.0931 ± 0.026, respectively.
For the sequence CFPFYVSCLLVL, the protein stability index in series [1] worked out at 0.321 ± 0.027; in series [2] (setting [3]) it was 0.3061 ± 0.0023; in series [2] (setting [4]), 0.311 ± 0.0064; in series [2] (setting [5]), 0.281 ± 0.029; in series [2] (setting [6]) it was 0.405 ± 0.019; in series [2] (setting [7]), 0.25 ± 0.0066. Besides, the protein stability index in series [2] (setting [8]) turned out to be 0.256 ± 0.02; in series [2] (setting [9]), 0.351 ± 0.0055.
For CFTLSLCLAFFF, the protein stability index worked out at 0.377 ± 0.014 in series [1]; 0.41 ± 0.026 in series [2] (setting [3]); 0.455 ± 0.013 in series [2] (setting [4]); 0.403 ± 0.03 in series [2] (setting [5]); 0.433 ± 0.0072 in series [2] (setting [6]); 0.324 ± 0.017 in series [2] (setting [7]). Further, the protein stability index in series [2] (setting [8]) amounted to 0.334 ± 0.026; in series [2] (setting [9]), 0.4091 ± 0.0024.
For CGLLSALSCLVF, the protein stability index in series [1] was 0.511 ± 0.02; in series [2] (setting [3]), 0.507 ± 0.033; in series [2] (setting [4]), 0.54 ± 0.011; in series [2] (setting [5]), 0.442 ± 0.019; in series [2] (setting [6]) it was 0.5533 ± 0.0036; in series [2] (setting [7]), 0.4185 ± 0.0022. Also, the protein stability index is 0.45 ± 0.017 in series [2] (setting [8]) and 0.552 ± 0.023 in series [2] (setting [9]).
As for CIVFVYCLFSCP, the protein stability index in series [1] is 0.32 ± 0.0041; in series [2] (setting [3]), 0.206 ± 0.0051; in series [2] (setting [4]), 0.301 ± 0.038; in series [2] (setting [5]) it was 0.213 ± 0.024; in series [2] (setting [6]), 0.406 ± 0.041; in series [2] (setting [7]), 0.209 ± 0.0024. The protein stability index was determined as 0.207 ± 0.036 in series [2] (setting [8]) and 0.332 ± 0.027 in series [2] (setting [9]).
Consider CKRWGVVSYVFV, for which the protein stability index in series [1] amounted to 0.493 ± 0.017; in series [2] (setting [3]) it was 0.601 ± 0.069; in series [2] (setting [4]), 0.6545 ± 0.0054; in series [2] (setting [5]), 0.464 ± 0.025; in series [2] (setting [6]) it was 0.655 ± 0.0067; in series [2] (setting [7]), 0.418 ± 0.025. Also, the figures for the protein stability index in series [2] (setting [8]) and in series [2] (setting [9]) were 0.441 ± 0.024 and 0.61 ± 0.0099, respectively.
With CLCFFLICFILF, the protein stability index in series [1] came out at 0.3151 ± 0.002; in series [2] (setting [3]), 0.252 ± 0.0092; in series [2] (setting [4]), 0.255 ± 0.011; in series [2] (setting [5]), 0.235 ± 0.019; in series [2] (setting [6]), 0.391 ± 0.027; in series [2] (setting [7]), 0.248 ± 0.0026. Also, the protein stability index is 0.219 ± 0.032 in series [2] (setting [8]) and 0.333 ± 0.016 in series [2] (setting [9]).
For CLCFFMSILWWV, the protein stability index in series [1] was determined as 0.4269 ± 0.0011; in series [2] (setting [3]), 0.4741 ± 0.0038; in series [2] (setting [4]), 0.498 ± 0.017; in series [2] (setting [5]) it was 0.434 ± 0.035; in series [2] (setting [6]), 0.5222 ± 0.0016; in series [2] (setting [7]) it was 0.422 ± 0.015. Further, the protein stability index in series [2] (setting [8]) is 0.374 ± 0.019; in series [2] (setting [9]), 0.478 ± 0.0048.
In the case of CLCVLVSFFFGL, the protein stability index in series [1] was determined as 0.288 ± 0.074; in series [2] (setting [3]), 0.41 ± 0.037; in series [2] (setting [4]), 0.489 ± 0.041; in series [2] (setting [5]) it was 0.35 ± 0.024; in series [2] (setting [6]) it was 0.5006 ± 0.0024; in series [2] (setting [7]) it was 0.316 ± 0.024. Also, the protein stability index in series [2] (setting [8]) worked out at 0.323 ± 0.027; in series [2] (setting [9]), 0.4768 ± 0.0016.
For CLFHQFITLLVN, the protein stability index stood at 0.0965 ± 0.019 in series [1]; 0.0942 ± 0.009 in series [2] (setting [3]); 0.177 ± 0.012 in series [2] (setting [4]); 0.222 ± 0.026 in series [2] (setting [5]); 0.2692 ± 0.0019 in series [2] (setting [6]); 0.0508 ± 0.017 in series [2] (setting [7]). The protein stability index came out at 0.0593 ± 0.0052 in series [2] (setting [8]) and 0.0523 ± 0.01 in series [2] (setting [9]).
With CLFLNCRFYMFL, the protein stability index in series [1] was determined as 0.821 ± 0.035; in series [2] (setting [3]), 0.951 ± 0.021; in series [2] (setting [4]), 0.898 ± 0.065; in series [2] (setting [5]), 0.808 ± 0.04; in series [2] (setting [6]) it was 0.89 ± 0.024; in series [2] (setting [7]), 0.788 ± 0.014. The protein stability index in series [2] (setting [8]) turned out to be 0.796 ± 0.036; in series [2] (setting [9]), 0.905 ± 0.011.
Consider CLFSPFCFILFC, for which the protein stability index in series [1] came out at 0.12318 ± 9.1e-05; in series [2] (setting [3]) it was 0.0319 ± 0.013; in series [2] (setting [4]), 0.0391 ± 0.0022; in series [2] (setting [5]), 0.0898 ± 0.0084; in series [2] (setting [6]), 0.11 ± 0.012; in series [2] (setting [7]), 0.285 ± 0.021. The protein stability index is 0.074 ± 0.011 in series [2] (setting [8]) and 0.0686 ± 0.019 in series [2] (setting [9]).
CLTGWFGIFSAP: the protein stability index is 0.7344 ± 0.0021 in series [1]; 0.708 ± 0.019 in series [2] (setting [3]); 0.755 ± 0.025 in series [2] (setting [4]); 0.678 ± 0.016 in series [2] (setting [5]); 0.763 ± 0.02 in series [2] (setting [6]); 0.695 ± 0.015 in series [2] (setting [7]). The values for the protein stability index in series [2] (setting [8]) and in series [2] (setting [9]) were 0.688 ± 0.027 and 0.737 ± 0.015, respectively.
Take CMIACYALLRLL: the protein stability index in series [1] was determined as 0.11 ± 0.039; in series [2] (setting [3]) it was 0.176 ± 0.023; in series [2] (setting [4]) it was 0.256 ± 0.011; in series [2] (setting [5]) it was 0.346 ± 0.036; in series [2] (setting [6]), 0.477 ± 0.0079; in series [2] (setting [7]), 0.0799 ± 0.021. The protein stability index in series [2] (setting [8]) was found to be 0.0777 ± 0.016; in series [2] (setting [9]), 0.0702 ± 0.0087.
